From the supplement of paper PMC12042874
± gives the uncertainty stated by the source.

assay: amyloid nucleation score (Sup35N fusion, yeast selection) (log enrichment); library NNK3; higher = more nucleation; inactive = no reads after selection
How it was run: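 For the nucleation score, DiMSum gave the log enrichment of output over input reads, centred on the mode score of non-aggregating sequences. Psi-negative yeast expressing Sup35N fused to peptides of 20 random codons were induced with 100 μM copper sulfate for 24 hours and grown 7 days at 30°C on medium lacking adenine and uracil. Input and output plasmid inserts were Illumina-sequenced, and sequences with under 100 input reads were excluded.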

| Substance | amyloid nucleation score |
| --- | --- |
| MVSNNGFIRSLVENPTPIQD | inactive |
| MWCMGNSVGSVWSRCTYMRY | inactive |
| MWGVCSFFAFPHIIFM | 1.33 ± 0.11 |
| MWSHFFSQYSGWRFYTKSRF | inactive |
| MWVFKMRTGQYRASSRSLHR | 0.175 ± 0.37 |
| MWVLSV | inactive |
| MWVQEYKTNNGYSLA | inactive |
| MYFFSHPPSNRRE | inactive |
| MYFSFLW | 0.18 ± 0.47 |
| MYLNNFAWRVTVWNIFVHAL | 0.512 ± 0.16 |
| MYPYAITVTGMFLLVPSCLD | inactive |
| MYQMSTVKRRRVGGSNDMCV | inactive |
| MYRLIVYT | inactive |
| MYWTNRHLQNIFWVKRNCGM | inactive |
| NAGHICFVVVTKWREFASVY | inactive |
| NAHCMVLMHRAKVWIFMINK | inactive |
| NAKPCSGPTMTGADEFPLCL | inactive |
| NALILAT | inactive |
| NARGVKSDEILN | inactive |
| NATSQLVVGAVQ | inactive |
| NCCQFPVDAS | inactive |
| NCDIPFFTRSEIVFLFVDFI | inactive |
| NCHAGPYEVYLVVGPELLLK | inactive |
| NCPSWGGFGIATSGQR | inactive |
| NCRRRKCVTGGGRS | 1.16 ± 0.17 |
| NCRVMITVIYTICNVVFLSC | inactive |
| NCRYIVAPMKQLYMGIEMVL | inactive |

| Substance | amyloid nucleation score |
| --- | --- |
| NCYFIQGWSSLMYSKGFNKC | inactive |
| NDFCLIYYICGS | 0.743 ± 0.17 |
| NDFSPVRWTVLDTDDPK | inactive |
| NDHSEGTCSIRERQTSRWML | inactive |
| NDLSDSMRVR | inactive |
| NDRIYCGGDYPTNH | inactive |
| NDYGDGVSHLMGTGTPTSLW | inactive |
| NECLVDTA | inactive |
| NEIFIRLLSNMKEPR | 1.31 ± 0.14 |
| NENHGCYMGRVFQCGIYEYV | 1.44 ± 0.13 |
| NEVMGFFNDQWRMIWWGYPR | inactive |
| NFCNLLFR | inactive |
| NFEIFSRVQWDLC | inactive |
| NFFMGLLSSRSMGLTWYWCM | inactive |
| NFIIWWVLDISVERIRINEV | inactive |
| NFITRWCGFSGSA | 0.608 ± 0.2 |
| NFMGVYLVWNFIVVFKVHYV | inactive |
| NFMPNKYCNVELVFWGDLGI | 1.59 ± 0.12 |
| NFRLYLLNCN | inactive |
| NFRPEKHINLMVCKSLPFV | 0.705 ± 0.21 |
| NFRSSI | inactive |
| NFSIRCTWLVVNNAVDLRDN | 2.94 ± 0.049 |
| NFVMLEKPDRTDLPGCTKQR | inactive |
| NGDGLVLYIRLLRLRRHVDT | inactive |
| NGFCSASICREDCEMWNMQS | inactive |
| NGGVLAGTMG | inactive |
| NGKVLM | inactive |

| Substance | amyloid nucleation score |
| --- | --- |
| NGNFSVRFSVKS | inactive |
| NGSHDRGVPAELSAFKG | inactive |
| NGSLREKSGSVCKRIL | inactive |
| NGSNFFDCSQFLCSFGGDVV | 2.45 ± 0.072 |
| NGVMGRGLYTKSQRSYCDNN | inactive |
| NGYLACSPFS | inactive |
| NHGLLTKGMISAFRII | inactive |
| NHLGVRWVLSMNMTFPHHNL | 1.29 ± 0.089 |
| NHYATFGCSVTFAIVNWSRF | 1.86 ± 0.057 |
| NHYCDFAVWSTFNLTLHHSL | inactive |
| NICCHISKSRPYQVYFSLQL | inactive |
| NICLKNSVS | inactive |
| NIIFRTW | inactive |
| NIISNDLSEASIYNGFVCNR | inactive |
| NIMVDHS | -0.476 ± 1.4 |
| NIMVVYPFFYGFKHNWLESI | inactive |
| NINYTYLESVLIMGYMFREL | 2.21 ± 0.095 |
| NIPPLTLLAVVGS | inactive |
| NIRKPDMYLITVCWESSQAL | inactive |
| NISMVTSEDYMRDLLIFSTG | inactive |
| NITPRQMWVRWRQCMMGTGL | inactive |
| NKHDHLFRKFFLCISLGLAG | inactive |
| NKNSVFSLSYPYYVTCVGTY | inactive |
| NKRGNVASLLSLACKYGAEQ | inactive |
| NKVCLDTSAVYYSFRDKDG | inactive |
